Assay results from PMC8633249.

What was measured:
[1] = target: AGL55, 55-mer A-domain peptide of PAM_(NS88.2) (Streptococcus pyogenes (GAS isolate NS88.2)); test: SEC-MALS; K2hPg/AGL55 mixture on a Wyatt 030S5 column, UV, RI and MALS detection, protein conjugate analysis; 50 mM Na-phosphate/100 mM NaCl, pH 7.4; 25°C
[2] = target: PAM_(NS88.2), plasminogen-binding Group A streptococcal M-protein from GAS isolate NS88.2 (Streptococcus pyogenes (GAS isolate NS88.2)); test: ITC; K2hPg (syringe) titrated into PAM_(NS88.2) (6 µM as monomer, cell); 50 mM sodium phosphate/100 mM NaCl, pH 7.4; 25°C; only the final inflection fitted, hetero-association model A + B (Sedphat)
[3] = target: AGL55, 55-mer A-domain peptide of PAM_(NS88.2) (Streptococcus pyogenes (GAS isolate NS88.2)); test: ITC; K2hPg (syringe) titrated into AGL55 (30 µM, cell); 50 mM sodium phosphate/100 mM NaCl, pH 7.4; 25°C; hetero-association model A + B (Sedphat)
[4] = target: AGL55, 55-mer A-domain peptide of PAM_(NS88.2) (Streptococcus pyogenes (GAS isolate NS88.2)); test: ITC; K2hPg (syringe) titrated into AGL55 (30 µM, cell); 50 mM sodium phosphate/100 mM NaCl, pH 7.4; 37°C; hetero-association model A + B (Sedphat)
[5] = target: PAM_(NS88.2), plasminogen-binding Group A streptococcal M-protein from GAS isolate NS88.2 (Streptococcus pyogenes (GAS isolate NS88.2)); test: ITC; K2hPg (syringe) titrated into PAM_(NS88.2) (6 µM as monomer, cell); 50 mM sodium phosphate/100 mM NaCl, pH 7.4; 37°C; hetero-association model (Sedphat)
[6] = target: AGL55, 55-mer A-domain peptide of PAM_(NS88.2) (Streptococcus pyogenes (GAS isolate NS88.2)); test: ITC; K2hPg (syringe) titrated into AGL55 (30 µM, cell); 50 mM sodium phosphate/100 mM NaCl, pH 7.4; 4°C; hetero-association model A + B (Sedphat)
[7] = target: PAM_(NS88.2), plasminogen-binding Group A streptococcal M-protein from GAS isolate NS88.2 (Streptococcus pyogenes (GAS isolate NS88.2)); test: ITC; K2hPg (syringe) titrated into PAM_(NS88.2) (6 µM as monomer, cell); 50 mM sodium phosphate/100 mM NaCl, pH 7.4; 4°C; hetero-association model of K2hPg and PAM monomer (Sedphat)
[8] = target: PAM_(NS88.2), plasminogen-binding Group A streptococcal M-protein from GAS isolate NS88.2 (Streptococcus pyogenes (GAS isolate NS88.2)); test: AUC; sedimentation equilibrium of the K2hPg/PAM_(NS88.2) complex isolated by gel filtration, at the temperature of its isolation (4°C, 25°C, 37°C); 50 mM sodium phosphate/100 mM NaCl, pH 7.4
[9] = target: PAM_(NS88.2), plasminogen-binding Group A streptococcal M-protein from GAS isolate NS88.2 (Streptococcus pyogenes (GAS isolate NS88.2)); test: AUC; apo-PAM_(NS88.2), sedimentation equilibrium at two rotor speeds (<0.2 mg/ml) and sedimentation velocity (6 µM); 50 mM sodium phosphate/100 mM NaCl, pH 7.4; 4°C, 15°C and 25°C

| Substance | stoichiometry N [1] | Kd [2] [nM] | stoichiometry N [3] | stoichiometry N [4] | Kd [5] [nM] | dH [5] [kcal/mol] | stoichiometry N [6] | Kd [7] [nM] | dH [7] [kcal/mol] | stoichiometry N [8] | stoichiometry N [9] |
| --- | --- | --- | --- | --- | --- | --- | --- | --- | --- | --- | --- |
| K2hPg, kringle-2 domain of human plasminogen (from UniProt P00747 183-262) (domain or fragment) | 1 m:m | 2.7 | 1 m:m | 1 m:m | 181 | -37 | 1 m:m | 0.7 | -13.7 | 1 m:m | – |
| PAM_(NS88.2), plasminogen-binding Group A streptococcal M-protein from GAS isolate NS88.2 (natural protein) | – | – | – | – | – | – | – | – | – | – | 2 |
